The values that follow come from patent US20250026836A1 (UCB, published 2025).

The labels stand for the following.
B1: 12389 (chimeric rabbit V regions/human Fc) expressed as hIgG1 (antibody, V domains shown)
VH: QSVEESGGRLVTPGTPLTLTCTVSGIDLSSNAMSWVRQAPGEGLEWIGTISSGGRTYYASWAKGRFTISKTSTTVDLKIPSPTTEDTATYFCGRGDGATGFNIWGPGTLVTVSS
VL: ALVMTQTPASVSEPVGGTVTIKCQASQSIYSYLSWYQQKPGQPPKLLIYKASTLASGVSSRFKGSGSGTQFTLTISDLECGDAATYYCQNHWNVGGNGWPFGGGTEVVVK
B2: Rabbit Fab (VR12389) (Fab, V domains shown)
VH: B1 VH
VL: ALVMTQTPASVSEPVGGTVTIKCQASQSIYSYLSWYQQKPGQPPKLLIYKASTLASGVSSRFKGSGSGTQFTLTISDLECGDAATYYCQNHWNVGGNGWPFGGGTEVVVKR
notes: Used for the crystal structure; also called VR12389 RbFab
B3: 12389 (chimeric rabbit V regions/human Fc) expressed as hIgG4P (antibody, V domains shown)
VH: B1 VH
VL: B1 VL
B4: 12389gL2gH1 hIgG4P (antibody)
heavy: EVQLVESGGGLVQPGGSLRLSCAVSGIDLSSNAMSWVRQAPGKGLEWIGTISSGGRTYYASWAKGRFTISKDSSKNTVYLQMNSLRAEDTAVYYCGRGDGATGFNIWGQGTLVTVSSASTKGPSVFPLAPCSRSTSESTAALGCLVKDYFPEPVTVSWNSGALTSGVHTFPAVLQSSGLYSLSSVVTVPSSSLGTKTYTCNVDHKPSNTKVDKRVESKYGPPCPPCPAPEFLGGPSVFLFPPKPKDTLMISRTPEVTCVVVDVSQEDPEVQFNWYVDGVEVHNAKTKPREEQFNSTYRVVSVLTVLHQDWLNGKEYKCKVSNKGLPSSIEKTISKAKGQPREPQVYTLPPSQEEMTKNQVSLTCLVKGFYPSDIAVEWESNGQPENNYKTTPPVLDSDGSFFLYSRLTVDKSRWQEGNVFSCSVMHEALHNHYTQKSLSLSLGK
light: AIVLTQSPSSLSASVGDRVTITCQASQSIYSYLSWYQQKPGKAPKLLIYKASTLASGVPSRFSGSGSGTDFTLTISSLQPEDFATYYCQNHWNVGGNGWPFGGGTKVEIKRTVAAPSVFIFPPSDEQLKSGTASVVCLLNNFYPREAKVQWKVDNALQSGNSQESVTEQDSKDSTYSLSSTLTLSKADYEKHKVYACEVTHQGLSSPVTKSFNRGEC
B5: 12389gL2gH9 hIgG4P (antibody, V domains shown)
VH: EVQLVESGGGLVQPGGSLRLSCAVSGIDLSSNAMSWVRQAPGKGLEWIGTISSGGRTYYASWAKGRFTISKDNSKNTVYLQMNSLRAEDTAVYYCGRGDGATGFNIWGQGTLVTVSS
VL: AIVLTQSPSSLSASVGDRVTITCQASQSIYSYLSWYQQKPGKAPKLLIYKASTLASGVPSRFSGSGSGTDFTLTISSLQPEDFATYYCQNHWNVGGNGWPFGGGTKVEIKR
B6: 12389gL1gH1 hIgG4P (antibody, V domains shown)
VH: B5 VH with N73S
VL: B5 VL with D70Q
B7: 12389gL2gH6 hIgG4P (antibody, V domains shown)
VH: B5 VH with G49S, N73S
VL: B5 VL
B8: 12389gL2gH14 hIgG4P (antibody, V domains shown)
VH: B5 VH with V24A, N73S, G96A
VL: B5 VL
B9: 12389gL2gH8 hIgG4P (antibody, V domains shown)
VH: B5 VH with K71R, N73S
VL: B5 VL
B10: 12389gL2gH4 hIgG4P (antibody, V domains shown)
VH: B5 VH with V24A, N73S
VL: B5 VL
B11: 12389gL3gH16 hIgG4P (antibody)
heavy: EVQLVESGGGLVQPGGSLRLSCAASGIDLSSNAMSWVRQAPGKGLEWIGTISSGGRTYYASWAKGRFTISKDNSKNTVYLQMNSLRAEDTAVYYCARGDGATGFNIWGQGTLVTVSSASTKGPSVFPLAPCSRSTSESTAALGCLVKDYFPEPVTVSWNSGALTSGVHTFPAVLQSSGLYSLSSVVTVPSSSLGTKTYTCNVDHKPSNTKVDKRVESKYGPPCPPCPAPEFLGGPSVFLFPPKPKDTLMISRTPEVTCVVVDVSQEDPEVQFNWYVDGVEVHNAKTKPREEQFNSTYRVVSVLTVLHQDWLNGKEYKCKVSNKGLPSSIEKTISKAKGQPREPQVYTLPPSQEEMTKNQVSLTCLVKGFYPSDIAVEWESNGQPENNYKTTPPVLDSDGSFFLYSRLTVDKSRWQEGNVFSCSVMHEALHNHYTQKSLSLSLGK
light: B4 light with V3Q
B12: 12389gL2gH13 hIgG4P (antibody, V domains shown)
VH: B5 VH with V24A
VL: B5 VL
B13: 12389gL2gH16 hIgG4P (antibody)
heavy: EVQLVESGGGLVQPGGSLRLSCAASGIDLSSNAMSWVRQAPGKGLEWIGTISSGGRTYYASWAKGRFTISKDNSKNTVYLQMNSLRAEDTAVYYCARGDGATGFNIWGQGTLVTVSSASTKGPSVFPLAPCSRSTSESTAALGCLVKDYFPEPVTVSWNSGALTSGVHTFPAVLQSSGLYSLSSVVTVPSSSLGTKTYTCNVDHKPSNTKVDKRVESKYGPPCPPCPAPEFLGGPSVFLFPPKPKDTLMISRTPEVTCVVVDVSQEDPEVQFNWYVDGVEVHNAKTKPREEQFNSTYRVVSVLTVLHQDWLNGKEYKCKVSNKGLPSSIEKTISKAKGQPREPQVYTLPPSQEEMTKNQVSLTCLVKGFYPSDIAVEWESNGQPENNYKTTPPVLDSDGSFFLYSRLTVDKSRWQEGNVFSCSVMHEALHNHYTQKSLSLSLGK
light: B4 light
notes: also called Graft 12389gL2gH16
B14: 12389gL2gH5 hIgG4P (antibody, V domains shown)
VH: B5 VH with I48V, N73S
VL: B5 VL
B15: 12389gL2gH11 hIgG4P (antibody, V domains shown)
VH: B5 VH with N73S, V78L
VL: B5 VL
B16: 12389gL2gH12 hIgG4P (antibody, V domains shown)
VH: B5 VH with N73S, G96A
VL: B5 VL
B17: 12389gL2gH15 hIgG4P (antibody, V domains shown)
VH: B5 VH with G96A
VL: B5 VL
B18: 12389gL3gH1 hIgG4P (antibody)
heavy: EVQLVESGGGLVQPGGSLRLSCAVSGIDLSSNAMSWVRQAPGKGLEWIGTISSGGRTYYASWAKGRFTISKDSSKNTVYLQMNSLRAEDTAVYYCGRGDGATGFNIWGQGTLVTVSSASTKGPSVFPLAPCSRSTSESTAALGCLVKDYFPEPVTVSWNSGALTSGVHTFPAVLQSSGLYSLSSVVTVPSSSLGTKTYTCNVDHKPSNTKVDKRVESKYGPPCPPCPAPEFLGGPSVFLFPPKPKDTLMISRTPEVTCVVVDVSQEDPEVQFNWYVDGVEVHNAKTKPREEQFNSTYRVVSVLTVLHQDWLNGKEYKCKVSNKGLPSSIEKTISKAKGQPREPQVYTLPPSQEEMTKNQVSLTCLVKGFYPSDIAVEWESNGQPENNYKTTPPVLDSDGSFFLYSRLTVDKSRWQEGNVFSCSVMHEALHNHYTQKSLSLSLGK
light: B4 light with V3Q

Substitutions are numbered along the chain they refer to.

The first test concerns the target T1, Human HLA-G ECD + B2m (soluble, AVItev10His tag) (human).
T1 construct: also called soluble HLA-G
As to the kind of experiment: SPR, 25 C, hIgG1 captured via anti-human Fc, HLA-G ECD+B2m 50 nM as analyte, first experiment. In general terms: In SPR one partner is held on a chip, and binding of the other changes the refractive index at the surface.
B1: the dissociation constant Kd was found to be 10.8 nM, the off-rate (koff) worked out at 0.0091 s⁻¹ and the on-rate (kon) was 841000 M⁻¹ s⁻¹.

The next test has as its target T1, Human HLA-G ECD + B2m (soluble, …). As to the kind of experiment: SPR, 25 C, hIgG1 captured via anti-human Fc, HLA-G ECD+B2m 50 nM as analyte, second experiment.
B1: the Kd was 11.7 nM, the koff was 0.00918 s⁻¹ and the kon was 782000 M⁻¹ s⁻¹.

Another test deals with T2, PeptideB2mHLAG C42S mut (single-chain peptide-B2m-HLA-G ECD fusion, His tag removed) (human).
T2 construct: Used for complexing and in the crystal structure; also called HLA-G fusion protein
The test can be described thus: complex formation and size exclusion chromatography before crystallisation. A general note: In gel filtration, larger molecules generally elute earlier.
B2: the binding result is given as “binds”.

The target of a further test is T1, Human HLA-G ECD + B2m (soluble, …). The test can be described thus: SPR, 25 C, hIgG4P captured via anti-human Fc, HLA-G ECD+B2m 50 nM as analyte.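 Note: biacore T200 readout, 60 s association then 150 s dissociation, reference-cell background subtracted, kinetics fitted to a 1:1 binding model with local Rmax.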
As for B3, the Kd stood at 9.69 nM, the koff was 0.0092 s⁻¹ and the association rate constant (kon) was 949000 M⁻¹ s⁻¹.

With B4, the equilibrium dissociation constant (Kd) was found to be 7.63 nM, the koff amounted to 0.00708 s⁻¹ and the kon was determined as 928000 M⁻¹ s⁻¹.

Consider B5, for which the dissociation constant Kd stood at 7.09 nM, the dissociation rate constant (koff) stood at 0.00603 s⁻¹ and the kon was found to be 850000 M⁻¹ s⁻¹.

With B6, the equilibrium dissociation constant (Kd) is 7.99 nM, the koff turned out to be 0.00678 s⁻¹ and the on-rate (kon) was 848000 M⁻¹ s⁻¹.

For the molecule B7, the equilibrium dissociation constant (Kd) amounted to 12.5 nM, the off-rate constant (koff) was determined as 0.0104 s⁻¹ and the kon came out at 839000 M⁻¹ s⁻¹.

B8: the Kd worked out at 7.58 nM, the koff is 0.00664 s⁻¹ and the kon was 875000 M⁻¹ s⁻¹.

B9: the Kd was found to be 15.4 nM, the koff amounted to 0.0121 s⁻¹ and the kon amounted to 787000 M⁻¹ s⁻¹.

Regarding B10, the dissociation constant Kd turned out to be 8.09 nM, the off-rate (koff) came out at 0.00718 s⁻¹ and the kon worked out at 888000 M⁻¹ s⁻¹.

Take B11: the Kd worked out at 6.72 nM.

For the molecule B12, the dissociation constant (Kd) was 6.61 nM, the off-rate (koff) worked out at 0.00632 s⁻¹ and the kon is 956000 M⁻¹ s⁻¹.

For the molecule B13, the Kd is 6.06 nM.

Consider B14, for which the Kd was 12.4 nM, the koff stood at 0.0101 s⁻¹ and the association rate constant (kon) was found to be 817000 M⁻¹ s⁻¹.

Regarding B15, the Kd turned out to be 10.7 nM, the koff was found to be 0.00907 s⁻¹ and the association rate constant (kon) was determined as 850000 M⁻¹ s⁻¹.

In the case of B16, the dissociation constant (Kd) worked out at 7.39 nM, the koff came to 0.00624 s⁻¹ and the on-rate constant (kon) is 844000 M⁻¹ s⁻¹.

Take B17: the dissociation constant Kd was found to be 6.33 nM, the koff was found to be 0.00567 s⁻¹ and the kon was 896000 M⁻¹ s⁻¹.

For the molecule B18, the Kd was found to be 8.25 nM, the off-rate (koff) is 0.00697 s⁻¹ and the kon is 845000 M⁻¹ s⁻¹.

What is called Kd is the constant that tells how readily two partners part at equilibrium. As a reminder, the koff is the first-order rate constant of dissociation. One may read the kon as the second-order rate constant of association.
